T1: human αvβ6 on 293F:huβ6 cells (human, UniProt P06756 31-1048; P18564 22-788)
T1 chain 1: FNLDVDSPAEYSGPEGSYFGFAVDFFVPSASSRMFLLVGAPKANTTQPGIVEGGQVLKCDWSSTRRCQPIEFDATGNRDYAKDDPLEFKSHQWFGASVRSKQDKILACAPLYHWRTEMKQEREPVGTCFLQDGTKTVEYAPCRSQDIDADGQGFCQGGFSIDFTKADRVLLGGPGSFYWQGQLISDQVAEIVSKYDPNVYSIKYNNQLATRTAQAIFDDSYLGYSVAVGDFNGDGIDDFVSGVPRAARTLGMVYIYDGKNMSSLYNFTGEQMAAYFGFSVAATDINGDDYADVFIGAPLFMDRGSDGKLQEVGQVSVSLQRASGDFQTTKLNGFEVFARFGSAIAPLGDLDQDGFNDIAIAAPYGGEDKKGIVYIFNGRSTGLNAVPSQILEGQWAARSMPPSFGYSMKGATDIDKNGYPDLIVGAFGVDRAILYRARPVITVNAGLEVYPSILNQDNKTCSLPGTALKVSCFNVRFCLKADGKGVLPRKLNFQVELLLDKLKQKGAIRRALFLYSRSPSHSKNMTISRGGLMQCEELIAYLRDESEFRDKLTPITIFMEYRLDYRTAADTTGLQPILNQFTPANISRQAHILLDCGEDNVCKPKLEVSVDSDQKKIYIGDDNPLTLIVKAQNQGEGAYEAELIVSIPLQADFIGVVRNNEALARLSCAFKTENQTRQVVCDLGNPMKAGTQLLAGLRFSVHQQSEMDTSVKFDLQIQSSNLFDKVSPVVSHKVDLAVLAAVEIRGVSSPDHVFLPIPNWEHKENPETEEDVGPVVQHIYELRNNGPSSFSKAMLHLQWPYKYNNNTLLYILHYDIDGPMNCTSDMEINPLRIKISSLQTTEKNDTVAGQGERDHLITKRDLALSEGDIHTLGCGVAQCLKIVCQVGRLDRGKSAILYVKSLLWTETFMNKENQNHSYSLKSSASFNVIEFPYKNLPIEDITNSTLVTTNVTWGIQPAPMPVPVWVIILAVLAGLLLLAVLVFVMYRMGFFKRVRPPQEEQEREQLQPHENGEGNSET
T1 chain 2: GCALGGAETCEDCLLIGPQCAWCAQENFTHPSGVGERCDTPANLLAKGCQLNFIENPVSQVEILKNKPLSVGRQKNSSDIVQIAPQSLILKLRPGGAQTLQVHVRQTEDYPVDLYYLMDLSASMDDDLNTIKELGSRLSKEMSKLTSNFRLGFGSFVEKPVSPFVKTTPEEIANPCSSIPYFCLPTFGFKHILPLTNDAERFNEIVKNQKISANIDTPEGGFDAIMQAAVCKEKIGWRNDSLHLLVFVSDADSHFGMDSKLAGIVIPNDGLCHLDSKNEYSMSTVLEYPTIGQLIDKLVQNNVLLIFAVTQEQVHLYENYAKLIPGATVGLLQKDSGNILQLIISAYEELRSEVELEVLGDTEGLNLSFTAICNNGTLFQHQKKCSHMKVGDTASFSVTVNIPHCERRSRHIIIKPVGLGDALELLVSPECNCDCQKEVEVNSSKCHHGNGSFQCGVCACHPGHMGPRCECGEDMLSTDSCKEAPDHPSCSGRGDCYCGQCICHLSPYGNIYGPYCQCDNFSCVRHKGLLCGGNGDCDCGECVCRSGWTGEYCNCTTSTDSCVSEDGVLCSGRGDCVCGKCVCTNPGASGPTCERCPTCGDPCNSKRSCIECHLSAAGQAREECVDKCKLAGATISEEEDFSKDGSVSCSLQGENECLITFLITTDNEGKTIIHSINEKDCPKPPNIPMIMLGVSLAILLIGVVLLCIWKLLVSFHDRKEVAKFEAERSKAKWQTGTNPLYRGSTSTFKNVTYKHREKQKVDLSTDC


Biological target: T1, human αvβ6 on 293F:huβ6 cells
Experiment: competition binding on 293F cells; 2nM m2A2-AF647 competitor

| Binder | EC50 [nM] |
| --- | --- |
| h2A2 HBLB (antibody, V domains shown) VH: QFQLVQSGAEVKKPGASVKVSCKASGYSFTDYNVNWVRQAPGQGLEWMGVINPKYGTTRYNQKFKGRVTMTRDTPTSTVYMELSSLRSEDTAVYYCTRGLNAWDYWGQGTLVTVSS VL: DIQMTQSPSSLSASVGDRVTITCGASENIYGALNWYQQKPGKAPKLLIYGATNLADGVPSRFSGSGSGRDYTFTISSLQPEDIATYYCQNVLTTPYTFGQGTKLEIKR | 9 |
| h2A2 HDLB (antibody, V domains shown) VH: QFQLVQSGAEVKKPGASVKVSCKASGYSFTDYNVNWVRQAPGQGLEWIGVINPKYGTTRYNQKFKGRATLTVDKPTSTAYMELSSLRSEDTAVYYCTRGLNAWDYWGQGTLVTVSS VL: DIQMTQSPSSLSASVGDRVTITCGASENIYGALNWYQQKPGKAPKLLIYGATNLADGVPSRFSGSGSGRDYTFTISSLQPEDIATYYCQNVLTTPYTFGQGTKLEIKR | 6 |
| h2A2 HBLA (antibody, V domains shown) VH: QFQLVQSGAEVKKPGASVKVSCKASGYSFTDYNVNWVRQAPGQGLEWMGVINPKYGTTRYNQKFKGRVTMTRDTPTSTVYMELSSLRSEDTAVYYCTRGLNAWDYWGQGTLVTVSS VL: DIQMTQSPSSLSASVGDRVTITCGASENIYGALNWYQQKPGKAPKLLIYGATNLADGVPSRFSGSGSGTDFTFTISSLQPEDIATYYCQNVLTTPYTFGQGTKLEIKR | 85 |
| h2A2 HALA (antibody, V domains shown) VH: QFQLVQSGAEVKKPGASVKVSCKASGYSFTDYNVNWVRQAPGQGLEWMGVINPKYGTTRYNQKFKGRVTMTRDTSTSTVYMELSSLRSEDTAVYYCTRGLNAWDYWGQGTLVTVSS VL: DIQMTQSPSSLSASVGDRVTITCGASENIYGALNWYQQKPGKAPKLLIYGATNLADGVPSRFSGSGSGTDFTFTISSLQPEDIATYYCQNVLTTPYTFGQGTKLEIKR | 74 |
| h2A2 HDLA (antibody, V domains shown) VH: QFQLVQSGAEVKKPGASVKVSCKASGYSFTDYNVNWVRQAPGQGLEWIGVINPKYGTTRYNQKFKGRATLTVDKPTSTAYMELSSLRSEDTAVYYCTRGLNAWDYWGQGTLVTVSS VL: DIQMTQSPSSLSASVGDRVTITCGASENIYGALNWYQQKPGKAPKLLIYGATNLADGVPSRFSGSGSGTDFTFTISSLQPEDIATYYCQNVLTTPYTFGQGTKLEIKR | 147 |

The next lines start with the values.

| EC50 [nM] | Binder |
| --- | --- |
| 4 | c2A2 (antibody, V domains shown) VH: EFQLQQSGPELVKPGASVKISCKASGYSFTDYNVNWVKQSNGKSLEWIGVINPKYGTTRYNQKFKGKATLTVDKPSSTAYMQLNSLTSEDSAVYYCTRGLNAWDYWGQGASVTVSS VL: DIQMTQSPASLSASVGETVTITCGASENIYGALNWYQRKQGKSPQLLIYGATNLADGMSSRFSGSGSGRQYSFKISSLHPDDVATYYCQNVLTTPYTFGGGTKLEIK |
| 74 | h2A2 HCLA (antibody, V domains shown) VH: QFQLVQSGAEVKKPGASVKVSCKASGYSFTDYNVNWVRQAPGQGLEWIGVINPKYGTTRYNQKFKGRATLTVDKSTSTAYMELSSLRSEDTAVYYCTRGLNAWDYWGQGTLVTVSS VL: DIQMTQSPSSLSASVGDRVTITCGASENIYGALNWYQQKPGKAPKLLIYGATNLADGVPSRFSGSGSGTDFTFTISSLQPEDIATYYCQNVLTTPYTFGQGTKLEIKR |
| 3 | h2A2 HCLB (antibody, V domains shown) VH: QFQLVQSGAEVKKPGASVKVSCKASGYSFTDYNVNWVRQAPGQGLEWIGVINPKYGTTRYNQKFKGRATLTVDKSTSTAYMELSSLRSEDTAVYYCTRGLNAWDYWGQGTLVTVSS VL: DIQMTQSPSSLSASVGDRVTITCGASENIYGALNWYQQKPGKAPKLLIYGATNLADGVPSRFSGSGSGRDYTFTISSLQPEDIATYYCQNVLTTPYTFGQGTKLEIKR |

Biological target: T1, human αvβ6 on 293F:huβ6 cells
Experiment: as above
Remark: another data set of the same source

| Binder | EC50 [nM] |
| --- | --- |
| h2A2 HCLF (antibody, V domains shown) VH: QFQLVQSGAEVKKPGASVKVSCKASGYSFTDYNVNWVRQAPGQGLEWIGVINPKYGTTRYNQKFKGRATLTVDKSTSTAYMELSSLRSEDTAVYYCTRGLNAWDYWGQGTLVTVSS VL: DIQMTQSPSSLSASVGDRVTITCQASENIYGALNWYQQKPGKAPKLLIYGATNLATGVPSRFSGSGSGTDYTFTISSLQPEDIATYYCQNVLTTPYTFGQGTKLEIKR | 6 |
| h2A2 HALF (antibody, V domains shown) VH: QFQLVQSGAEVKKPGASVKVSCKASGYSFTDYNVNWVRQAPGQGLEWMGVINPKYGTTRYNQKFKGRVTMTRDTSTSTVYMELSSLRSEDTAVYYCTRGLNAWDYWGQGTLVTVSS VL: DIQMTQSPSSLSASVGDRVTITCQASENIYGALNWYQQKPGKAPKLLIYGATNLATGVPSRFSGSGSGTDYTFTISSLQPEDIATYYCQNVLTTPYTFGQGTKLEIKR | 14 |
| h2A2 HALH (antibody, V domains shown) VH: QFQLVQSGAEVKKPGASVKVSCKASGYSFTDYNVNWVRQAPGQGLEWMGVINPKYGTTRYNQKFKGRVTMTRDTSTSTVYMELSSLRSEDTAVYYCTRGLNAWDYWGQGTLVTVSS VL: DIQMTQSPSSLSASVGDRVTITCGASENIYGALNWYQQKPGKAPKLLIYGATNLADGVPSRFSGSGSGRDFTFTISSLQPEDIATYYCQNVLTTPYTFGQGTKLEIKR | 46 |

Other lines, results leading:

| EC50 [nM] | Binder |
| --- | --- |
| 3 | c2A2 (antibody, V domains shown) VH: EFQLQQSGPELVKPGASVKISCKASGYSFTDYNVNWVKQSNGKSLEWIGVINPKYGTTRYNQKFKGKATLTVDKPSSTAYMQLNSLTSEDSAVYYCTRGLNAWDYWGQGASVTVSS VL: DIQMTQSPASLSASVGETVTITCGASENIYGALNWYQRKQGKSPQLLIYGATNLADGMSSRFSGSGSGRQYSFKISSLHPDDVATYYCQNVLTTPYTFGGGTKLEIK |
| 9 | h2A2 HALC (antibody, V domains shown) VH: QFQLVQSGAEVKKPGASVKVSCKASGYSFTDYNVNWVRQAPGQGLEWMGVINPKYGTTRYNQKFKGRVTMTRDTSTSTVYMELSSLRSEDTAVYYCTRGLNAWDYWGQGTLVTVSS VL: DIQMTQSPSSLSASVGDRVTITCGASENIYGALNWYQQKPGKAPKLLIYGATNLATGVPSRFSGSGSGRDYTFTISSLQPEDIATYYCQNVLTTPYTFGQGTKLEIKR |
| 12 | h2A2 HALD (antibody, V domains shown) VH: QFQLVQSGAEVKKPGASVKVSCKASGYSFTDYNVNWVRQAPGQGLEWMGVINPKYGTTRYNQKFKGRVTMTRDTSTSTVYMELSSLRSEDTAVYYCTRGLNAWDYWGQGTLVTVSS VL: DIQMTQSPSSLSASVGDRVTITCGASENIYGALNWYQQKPGKAPKLLIYGATNLADGVPSRFSGSGSGTDYTFTISSLQPEDIATYYCQNVLTTPYTFGQGTKLEIKR |
| 3 | h2A2 HCLC (antibody, V domains shown) VH: QFQLVQSGAEVKKPGASVKVSCKASGYSFTDYNVNWVRQAPGQGLEWIGVINPKYGTTRYNQKFKGRATLTVDKSTSTAYMELSSLRSEDTAVYYCTRGLNAWDYWGQGTLVTVSS VL: DIQMTQSPSSLSASVGDRVTITCGASENIYGALNWYQQKPGKAPKLLIYGATNLATGVPSRFSGSGSGRDYTFTISSLQPEDIATYYCQNVLTTPYTFGQGTKLEIKR |
| 5 | h2A2 HCLD (antibody, V domains shown) VH: QFQLVQSGAEVKKPGASVKVSCKASGYSFTDYNVNWVRQAPGQGLEWIGVINPKYGTTRYNQKFKGRATLTVDKSTSTAYMELSSLRSEDTAVYYCTRGLNAWDYWGQGTLVTVSS VL: DIQMTQSPSSLSASVGDRVTITCGASENIYGALNWYQQKPGKAPKLLIYGATNLADGVPSRFSGSGSGTDYTFTISSLQPEDIATYYCQNVLTTPYTFGQGTKLEIKR |
| 5 | h2A2 HALE (antibody, V domains shown) VH: QFQLVQSGAEVKKPGASVKVSCKASGYSFTDYNVNWVRQAPGQGLEWMGVINPKYGTTRYNQKFKGRVTMTRDTSTSTVYMELSSLRSEDTAVYYCTRGLNAWDYWGQGTLVTVSS VL: DIQMTQSPSSLSASVGDRVTITCQASENIYGALNWYQQKPGKAPKLLIYGATNLADGVPSRFSGSGSGRDYTFTISSLQPEDIATYYCQNVLTTPYTFGQGTKLEIKR |
| 3 | h2A2 HCLB (antibody, V domains shown) VH: QFQLVQSGAEVKKPGASVKVSCKASGYSFTDYNVNWVRQAPGQGLEWIGVINPKYGTTRYNQKFKGRATLTVDKSTSTAYMELSSLRSEDTAVYYCTRGLNAWDYWGQGTLVTVSS VL: DIQMTQSPSSLSASVGDRVTITCGASENIYGALNWYQQKPGKAPKLLIYGATNLADGVPSRFSGSGSGRDYTFTISSLQPEDIATYYCQNVLTTPYTFGQGTKLEIKR |
